Results as given in patent publication US20240150465A1 (Chugai, published 2024).
Numbering of substitutions follows the chain as printed.

T1: recombinant human DLL3 (human, UniProt Q9NYJ7 27-492)
T1 sequence: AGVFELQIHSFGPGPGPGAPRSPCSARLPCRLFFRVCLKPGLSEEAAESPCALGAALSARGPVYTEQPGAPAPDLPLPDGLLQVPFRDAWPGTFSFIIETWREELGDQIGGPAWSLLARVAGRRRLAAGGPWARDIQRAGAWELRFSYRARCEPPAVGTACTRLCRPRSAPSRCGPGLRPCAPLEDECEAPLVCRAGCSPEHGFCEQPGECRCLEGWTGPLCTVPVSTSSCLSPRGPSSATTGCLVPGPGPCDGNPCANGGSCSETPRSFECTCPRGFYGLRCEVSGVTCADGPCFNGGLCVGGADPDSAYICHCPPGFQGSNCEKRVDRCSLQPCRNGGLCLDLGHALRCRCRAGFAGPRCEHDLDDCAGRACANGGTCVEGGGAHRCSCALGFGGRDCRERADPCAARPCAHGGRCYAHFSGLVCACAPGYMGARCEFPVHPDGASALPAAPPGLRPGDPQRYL

T2: Cynomolgus DLL3 ECD with Myc-tag on N-terminus and His-tag on C-terminus (cynomolgus)
T2 construct: also called Myc-cynoDLL3-His; Cyno DLL3
T2 chain: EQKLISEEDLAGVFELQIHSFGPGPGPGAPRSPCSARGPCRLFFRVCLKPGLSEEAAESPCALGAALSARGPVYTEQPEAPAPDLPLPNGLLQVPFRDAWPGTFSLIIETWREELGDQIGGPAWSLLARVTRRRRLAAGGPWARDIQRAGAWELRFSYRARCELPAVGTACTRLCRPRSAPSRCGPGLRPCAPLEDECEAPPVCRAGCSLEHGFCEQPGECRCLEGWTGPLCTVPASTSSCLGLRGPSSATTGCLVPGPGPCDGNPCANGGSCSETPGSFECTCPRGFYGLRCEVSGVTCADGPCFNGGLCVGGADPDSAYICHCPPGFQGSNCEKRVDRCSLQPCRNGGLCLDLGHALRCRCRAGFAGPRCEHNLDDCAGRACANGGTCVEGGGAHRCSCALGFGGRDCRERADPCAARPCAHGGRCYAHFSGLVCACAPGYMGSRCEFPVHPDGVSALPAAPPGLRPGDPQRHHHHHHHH

B1: DLL3-6-SG1 (antibody, human IgG1, kappa, V domains shown)
VH: QVQLQESGPGLVKPSETLSLTCTVSGASISSFYWSWIRQPPGKGLEWIGYIYYSGTTNYNPSLKSRVTISVDTSKNQFSLKLSSVTAADTAVYYCARIAVAGFFFDYWGQGTLVTVSS
VL: EIVLTQSPGTLSLSPGERATLSCRASQSVNKNYLAWYQQKPGQAPRLLIYGASSRATGIPDRFSGSGSGTDFTLTISRLEPEDFAVYYCQQYDRSPLTFGGGTKVEIKR
notes: Variable regions of a previously reported anti-DLL3 antibody on SG1/SK1; Used as a second antibody only
B2: DLL3-4-SG1 (antibody, human IgG1, kappa, V domains shown)
VH: B1 VH with A27G, F32Y, I51V, R97S, A101T, F104Y
VL: B1 VL with A19V, S28R, K31N, K40R, V105L
notes: as for B1
B3: DLL3-22-SG1 (antibody, human IgG1, kappa, V domains shown)
VH: B1 VH with A27D, F32Y, S35T, N76S, R97S, A101R
VL: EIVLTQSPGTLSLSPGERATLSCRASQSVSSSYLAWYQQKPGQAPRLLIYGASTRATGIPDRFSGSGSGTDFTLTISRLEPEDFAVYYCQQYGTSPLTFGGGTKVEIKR
notes: as for B1
B4: DL301-SG1 (antibody, human IgG1, kappa, V domains shown)
VH: QVQLQQSGADLVRPGTSVKVSCKASGYAFTNYLIEWIKQRPGQGLEWIGVMNPGSGGTHYSEKFRGKATLTADKSSSTAYMQLISLTSDDSAVYFCARSDYDYVTYAMDYWGQGTSVTVSS
VL: DIKMTQSPSSMYASLGERVTITCKASQDINSYLIWFQQKPGKSPKTLIYRTNRLVDGVPSRFSGSGSGQDYSLTISSLEYGDMGIYYCLQYDEFPFTFGSGTKLEIKR
notes: Variable regions of a previously reported anti-DLL3 antibody on SG1/SK1; Also used biotin-labelled as a first antibody
B5: DL306-SG1 (antibody, human IgG1, kappa, V domains shown)
VH: EVQLQQSGPELVKPGASVKMSCRASGYTFTDYYMKWVKQSHGKSLEWIGDINPNNGDTFYNQKFKGKATLTIDKSSSTAYMQLNSLTSDDSAVYYCARDGNYAYFDYWGQGTTLTVSS
VL: DIVLTQSPASLAVSLGQRATISCRASKSVSTSGYSYMHWYQQKPGQPPKLLIFLASNLESGVPARFSGSGSGTDFTLNIHPVEEEDAATYYCQHSRHLPWTFGGGTKLEIKR
notes: as for B4
B6: DL309-SG1 (antibody, human IgG1, kappa, V domains shown)
VH: QVQLQQSGGDLMKPGASVKISCKAAGYTFSNYYIEWVKQRPGHGLEWIGEILPGSGSTTYNEKFKGKASFTADTSSNTAYMQLSSLTSEDSAVYYCARWGAREPGFPYWGQGTLVTVSA
VL: DIVMTQSQKFMSTSVGDRVSVTCKASQNVGTNVAWYQQKPGQSPKALIYSASYRYSGVPDRFTGSGSGTDFTLTISNVQSEDLAEYFCQQYNNYPLTFGAGTKLELKR
notes: as for B4
B7: DL312-SG1 (antibody, human IgG1, kappa, V domains shown)
VH: EVKLVESGGGLVQPGGSLSLSCAASGFTFTDYYMNWVRQPPGKALEWLALIRNKANGYTTEYNASVKGRFTISRDNSQNILYLQMNALRAEDSATYYCARDSDGYYEYYFDYWGQGTTLTVSS
VL: DIQMTQSPSSLSASLGERVSLTCRASQEISDYLSWLQQKPDGTIKRLIFAASTLDSGVPKRFSGSRSGSDFSLSISSLESEDFADYYCLQYASYPYTFGSGTKLEIKR
notes: as for B4
B8: D30316AE03/TR01 (bispecific antibody, V domains shown)
VH 1: EVQLVESGGGLVQPGGSLRLSCAASGFTFSNYGVSWVRQAPGQGLEWMGYIDIAFGRTYYASWVTGRITINPDTSKNQFSLQLNSVTPEDTAVYYCARVALVVAGVAYYGMDVWGQGTLVTVSS
VL 1: DIVMTQSPDSLAVSLGERATINCQASQNIYSYLSWYQQKPGKAPKLLIYRTSTLASGVPDRFSGSGSGTDFTLKISRVEAEDVGVYYCQSYYYSSGSSYGAFAFGQGTKVEIK
VH 2: QVQLVESGGGVVQPGGSLRLSCAASGFTFSNAWMHWVRQAPGKGLEWVAQIKDKSQNYATYVAESVKGRFTISRADSKNSIYLQMNSLKTEDTAVYYCRYVHYAAGYGVDIWGQGTTVTVSS
VL 2: DIVMTQSPLSLPVTPGEPASISCRSSQPLVHSNRNTYLHWYQQKPGQAPRLLIYKVSNRFSGVPDRFSGSGSGTDFTLKISRVEAEDVGVYYCGQGTQVPYTFGQGTKLEIK
notes: IgG-type anti-DLL3/CD3 bispecific made by Fab arm exchange

Tests used:
recombinant human DLL3 [1] = target: T1, recombinant human DLL3; assay: Octet binning on SA sensor; Antibody A (biotinylated, loaded first): DL312-SG1; then 20 nM human DLL3, then 80 nM Antibody B
Protocol: (§1) Octet (registered trademark) RED384 (Fortebio) was used to perform competitive binding assays by epitope binning for a panel of antibodies. A biotinylated antibody (DL301-SG1, DL306-SG1, DL309-SG1, DL312-SG1, D30316AE02-SG1, and D30841AE05-SG1) at 40 nM was first loaded to a streptavidin (SA) biosensor. Next, the sensor is exposed to 20 nM of human DLL3, followed by exposure to 80 nM of second antibody. The second antibodies are DL301-SG1, DL306-SG1, DL309-SG1, DL312-SG1, D30316AE02-SG1, D30841AE05-SG1, DLL3-14-SG1, DLL3-22-SG1, DLL3-4-SG1 and DLL3-6-SG1. Raw data was processed using ForteBio's Data Analysis Software 7.0 and the antibody pairs were assessed for competitive binding. Additional binding by the second antibody indicates an unoccupied epitope (non-competitor), while no binding indicates epitope blocking (competitor).
(§2) The competition ratio of antibody B to antibody A was calculated using the following equation: Competition Ratio (Antibody B to Antibody A)=[Binding Response (Antibody B-Antigen)]/[Binding Response (Antigen-Antibody A)]

recombinant human DLL3 [2] = target: T1, recombinant human DLL3; assay: Octet binning on SA sensor; Antibody A (biotinylated, loaded first): D30316AE02-SG1; then 20 nM human DLL3, then 80 nM Antibody B
Protocol: as §1, §2

recombinant human DLL3 [3] = target: T1, recombinant human DLL3; assay: Octet binning on SA sensor; Antibody A (biotinylated, loaded first): D30841AE05-SG1; then 20 nM human DLL3, then 80 nM Antibody B
Protocol: as §1, §2

recombinant human DLL3 [4] = target: T1, recombinant human DLL3; assay: Octet binning on SA sensor; Antibody A (biotinylated, loaded first): DL301-SG1; then 20 nM human DLL3, then 80 nM Antibody B
Protocol: as §1, §2

recombinant human DLL3 [5] = target: T1, recombinant human DLL3; assay: Octet binning on SA sensor; Antibody A (biotinylated, loaded first): DL309-SG1; then 20 nM human DLL3, then 80 nM Antibody B
Protocol: as §1, §2

recombinant human DLL3 [6] = target: T1, recombinant human DLL3; assay: Octet binning on SA sensor; Antibody A (biotinylated, loaded first): DL306-SG1; then 20 nM human DLL3, then 80 nM Antibody B
Protocol: as §1, §2

[7] = target: T2, Cynomolgus DLL3 ECD with Myc-tag on …; assay: SPR Biacore 8K, 37 C, pH 7.4; bispecific captured on anti-human Fc, DLL3 as analyte, 1:1 model
Protocol: (§3) Binding affinity of anti-DLL3 arm in the anti-DLL3/CD3 antibodies to human or cynomolgus DLL3 at pH 7.4 were assessed at 37 degrees C. using Biacore 8K instrument (GE Healthcare). Anti-human Fc (GE Healthcare) was immobilized onto all flow cells of a CM4 sensor chip using amine coupling kit (GE Healthcare). The bispecific antibodies were captured onto the anti-Fc sensor surfaces, and then recombinant human or cynomolgus DLL3 was injected over the flow cell. All antibodies and analytes were prepared in ACES pH 7.4 containing 20 mM ACES, 150 mM NaCl, 0.05% Tween 20, 0.005% NaN₃. Sensor surface was regenerated each cycle with 3M MgCl₂.

recombinant human DLL3 [8] = target: T1, recombinant human DLL3; assay: as above
Protocol: as §3

[9] = target: recombinant human CD3eg protein (CD3 epsilon-gamma, heterodimer of CD3 epsilon and CD3 gamma) (human, UniProt P07766 23-126; P09693 23-116); assay: SPR Biacore 8K, 37 C, pH 7.4; bispecific captured on anti-human Fc, human CD3eg as analyte, 1:1 model
recombinant human CD3eg protein (CD3 epsilon-gamma, heterodimer of CD3 epsilon and CD3 gamma), sequence (P07766 23-126 limits assumed, chain 1 of 2): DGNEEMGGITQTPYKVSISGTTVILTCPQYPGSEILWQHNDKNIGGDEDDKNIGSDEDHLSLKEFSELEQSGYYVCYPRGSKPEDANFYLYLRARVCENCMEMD
recombinant human CD3eg protein (CD3 epsilon-gamma, heterodimer of CD3 epsilon and CD3 gamma), sequence (P09693 23-116 limits assumed, chain 2 of 2): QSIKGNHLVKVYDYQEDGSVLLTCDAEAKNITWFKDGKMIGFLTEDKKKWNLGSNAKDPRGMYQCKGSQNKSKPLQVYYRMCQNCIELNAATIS
Protocol: as §3, with “of the anti-CD3” for “of anti-DLL3”, “arm of” for “arm in”, “anti-DLL3/CD3 bispecific” for “anti-DLL3/CD3”, “to CD3” for “to human or cynomolgus DLL3”, “7.4 was” for “7.4 were”, “human CD3eg proteins (CD3 epsilon-gamma, heterodimer of CD3 epsilon and CD3 gamma)” for “human or cynomolgus DLL3”

Binder	competition ratio (Antibody B to Antibody A) (recombinant human DLL3 [1])	competition ratio (Antibody B to Antibody A) (recombinant human DLL3 [2])	competition ratio (Antibody B to Antibody A) (recombinant human DLL3 [3])	competition ratio (Antibody B to Antibody A) (recombinant human DLL3 [4])	competition ratio (Antibody B to Antibody A) (recombinant human DLL3 [5])	competition ratio (Antibody B to Antibody A) (recombinant human DLL3 [6])	Kd [7] [nM]	koff [7] [s⁻¹]	kon [7] [M⁻¹ s⁻¹]	Kd (recombinant human DLL3 [8]) [nM]	koff (recombinant human DLL3 [8]) [s⁻¹]	kon (recombinant human DLL3 [8]) [M⁻¹ s⁻¹]	Kd [9] [nM]	koff [9] [s⁻¹]	kon [9] [M⁻¹ s⁻¹]
B1	1.3	1.3	1.3	1.2	1	1.3	–	–	–	–	–	–	–	–	–
B2	1.3	1.3	1.3	1.2	1	1.3	–	–	–	–	–	–	–	–	–
B3	1.3	1.3	1.3	1.2	0.9	1.3	–	–	–	–	–	–	–	–	–
B4	1.3	1.3	1.3	-0.1	1.2	1.3	–	–	–	–	–	–	–	–	–
B5	1.2	1.5	0	1.1	0.9	0	–	–	–	–	–	–	–	–	–
B6	1.5	1.4	1.5	1.4	-0.1	1.4	–	–	–	–	–	–	–	–	–
B7	0.2	1.4	1.4	1	1.1	1.4	–	–	–	–	–	–	–	–	–
B8	–	–	–	–	–	–	0.0117	2.72e-05	2.32e+06	0.0261	6.11e-05	2.34e+06	127	0.0169	134000
